In paper PMC3510509, “Binding of two DNA molecules by type II topoisomerases for decatenation”:

Experiments:
[1] = target: DNA gyrase holoenzyme (EcGyr) (Escherichia coli, UniProt P0AES4;P0AES6 1-875;1-804); assay: EMSA; 1.4 mM ATP; one complex; EMSA: 35 mM Tris-HCl pH 7.5, 1 mM spermidine, 25 mM K-glutamate, 90 ug/ml tRNA, 1.4 mM ATP, 50 ug/ml BSA, room temp (25 C), 1 nM DNA; filter binding: same mix o
[2] = target: T1, DNA gyrase holoenzyme (MsGyr) (Mycobacterium smegmatis, UniProt P48354;P0C559 1-842;1-675); assay: EMSA; 1.4 mM ATP; one complex; EMSA: 35 mM Tris-HCl pH 7.5, 1 mM spermidine, 25 mM K-glutamate, 90 ug/ml tRNA, 1.4 mM ATP, 50 ug/ml BSA, room temp (25 C), 1 nM DNA; filter binding: same mix on ice; SPR: 33 mM Tris-HCl pH 8.0, 5 mM MgCl2, 3 mM DTT, 25 C; conditions: protein: recombinant; chain copies: 2;2; label: 32P 5'-end; blunt
ParE = ParE (Escherichia coli, UniProt P20083 1-630); assay: filter binding; 20 nM protein; most efficient of those tested; EMSA: 35 mM Tris-HCl pH 7.5, 1 mM spermidine, 25 mM K-glutamate, 90 ug/ml tRNA, 1.4 mM ATP, 50 ug/ml BSA, room temp (25 C), 1 nM DNA; filter binding: same mix on ice; SPR: 33 mM Tris-HCl pH 8.0, 5 mM MgCl2, 3 mM DTT, 25 C; conditions: protein: recombinant; label: 32P 5'-end; blunt
GyrB R321A = GyrB R321A (Mycobacterium smegmatis, UniProt P0C559 1-675, R321A); assay: EMSA; 200 and 400 nM; complex not seen; EMSA: 35 mM Tris-HCl pH 7.5, 1 mM spermidine, 25 mM K-glutamate, 90 ug/ml tRNA, 1.4 mM ATP, 50 ug/ml BSA, room temp (25 C), 1 nM DNA; filter binding: same mix on ice; SPR: 33 mM Tris-HCl pH 8.0, 5 mM MgCl2, 3 mM DTT, 25 C; conditions: protein: recombinant; label: 32P 5'-end; blunt
GyrB (MsGyrB) = GyrB (MsGyrB) (Mycobacterium smegmatis, UniProt P0C559 1-675); assay: EMSA; 0.1 and 0.2 uM GyrB; EMSA: 35 mM Tris-HCl pH 7.5, 1 mM spermidine, 25 mM K-glutamate, 90 ug/ml tRNA, 1.4 mM ATP, 50 ug/ml BSA, room temp (25 C), 1 nM DNA; filter binding: same mix on ice; SPR: 33 mM Tris-HCl pH 8.0, 5 mM MgCl2, 3 mM DTT, 25 C; conditions: protein: recombinant; label: 32P 5'-end; blunt
[3] = target: MAEB hybrid gyrase (MsGyrA + EcGyrB) (Mycobacterium smegmatis / Escherichia …, UniProt P48354;P0AES6 1-842;1-804); assay: EMSA; one complex; EMSA: 35 mM Tris-HCl pH 7.5, 1 mM spermidine, 25 mM K-glutamate, 90 ug/ml tRNA, 1.4 mM ATP, 50 ug/ml BSA, room temp (25 C), 1 nM DNA; filter binding: same mix o
[4] = target: T1, DNA gyrase holoenzyme (MsGyr); assay: EMSA; 1.4 mM ATP; two complexes; EMSA: 35 mM Tris-HCl pH 7.5, 1 mM spermidine, 25 mM K-glutamate, 90 ug/ml tRNA, 1.4 mM ATP, 50 ug/ml BSA, room temp (25 C), 1 nM DNA; filter binding: same mix on ice; SPR: 33 mM Tris-HCl pH 8.0, 5 mM MgCl2, 3 mM DTT, 25 C; conditions: protein: recombinant, chain copies: 2;2, blunt
[5] = target: EAMB hybrid gyrase (EcGyrA + MsGyrB) (Escherichia coli / Mycobacterium …, UniProt P0AES4;P0C559 1-875;1-675); assay: EMSA; two complexes; EMSA: 35 mM Tris-HCl pH 7.5, 1 mM spermidine, 25 mM K-glutamate, 90 ug/ml tRNA, 1.4 mM ATP, 50 ug/ml BSA, room temp (25 C), 1 nM DNA; filter binding: same mix on ice; SPR: 33 mM Tris-HCl pH 8.0, 5 mM MgCl2, 3 mM DTT, 25 C; conditions: protein: recombinant; chain copies: 2;2; label: 32P 5'-end; blunt
[6] = target: Topoisomerase IV holoenzyme (Escherichia coli, UniProt P0AFI2;P20083 1-752;1-630); assay: EMSA; 5-40 nM; two complexes; EMSA: 35 mM Tris-HCl pH 7.5, 1 mM spermidine, 25 mM K-glutamate, 90 ug/ml tRNA, 1.4 mM ATP, 50 ug/ml BSA, room temp (25 C), 1 nM DNA; filter binding: same mix on ice; SPR: 33 mM Tris-HCl pH 8.0, 5 mM MgCl2, 3 mM DTT, 25 C; conditions: protein: recombinant; chain copies: 2;2; label: 32P 5'-end; blunt
[7] = target: T1, DNA gyrase holoenzyme (MsGyr); assay: pull-down; first DNA, then 240 bp; 200 nM enzyme; EMSA: 35 mM Tris-HCl pH 7.5, 1 mM spermidine, 25 mM K-glutamate, 90 ug/ml tRNA, 1.4 mM ATP, 50 ug/ml BSA, room temp (25 C), 1 nM DNA; filter binding: same mix on ice; SPR: 33 mM Tris-HCl pH 8.0, 5 mM MgCl2, 3 mM DTT, 25 C; conditions: protein: recombinant; chain copies: 2;2; label: biotin on one strand, 32P on complement; blunt

B1: DNA I (40 bp) (dsDNA)
DNA 1: GGTTGGACTAAGTCCCCAGGCCCCTTAGCCACCACAACGT
DNA 2: ACGTTGTGGTGGCTAAGGGGCCTGGGGACTTAGTCCAACC
Q: Which results are given for B1?
A: binding result [1]: binds; binding result [2]: binds

B2: DNA II (72 bp) (dsDNA)
DNA 1: ACTCTAGAGGATCCCCGGTTGGACTAAGTCCCCAGGCCCCTTAGCCACCACAACGTGGGTACCGAGCTCGAA
DNA 2: TTCGAGCTCGGTACCCACGTTGTGGTGGCTAAGGGGCCTGGGGACTTAGTCCAACCGGGGATCCTCTAGAGT
Q: Which results are given for B2?
A: binding result (ParE): binds; binding result (GyrB R321A): no binding; binding result [1]: binds; binding result (GyrB (MsGyrB)): binds; binding result [3]: binds; binding result ([4]; label: 32P 5'-end): binds; binding result [5]: binds; binding result [6]: binds

B3: biotinylated 72 bp DNA (dsDNA)
DNA 1: ACTCTAGAGGATCCCCGGTTGGACTAAGTCCCCAGGCCCCTTAGCCACCACAACGTGGGTACCGAGCTCGAA
DNA 2: TTCGAGCTCGGTACCCACGTTGTGGTGGCTAAGGGGCCTGGGGACTTAGTCCAACCGGGGATCCTCTAGAGT
Q: Does B3 bind [7]?
A: binds

B4: DNA III (143 bp) (dsDNA)
DNA 1: GTAAAACGACGGCCAGTGCCAAGCTTGCATGCCTGCAGGTCGACTCTAGAGGATCCCCGGTTGGACTAAGTCCCCAGGCCCCTTAGCCACCACAACGTGGGTACCGAGCTCGAATTCGTAATCATGGTCATAGCTGTTTCCTG
DNA 2: CAGGAAACAGCTATGACCATGATTACGAATTCGAGCTCGGTACCCACGTTGTGGTGGCTAAGGGGCCTGGGGACTTAGTCCAACCGGGGATCCTCTAGAGTCGACCTGCAGGCATGCAAGCTTGGCACTGGCCGTCGTTTTAC
Q: Does B4 bind [1]?
A: binds

Q: Does B4 bind ([4]; label: 32P 5'-end (forward primer))?
A: binds
